Like-named read-outs stand apart in the source and are kept apart here. Values belong to the binder of their own block, whether it stands above or below them.
B1: recombinant human CD58-Fc fusion protein (rhCD58-Fc) (Fc fusion, UniProt P19256 29-215, looked up)
chain: FSQQIYGVVYGNVTFHVPSNVPLKEVLWKKQKDKVAELENSEFRAFSSFKNRVYLDTVSGSLTIYNLTSSDEDEYEMESPNITDTMKFFLYVLESLPSPTLTCALTNGSIEVQCMIPEHYNSHRGLIMYSWDCPMEQCKRNSTSIYFKMENDLPQKIQCTLSNPLFNTTSSIILTTCIPSSGHSRHR
notes: Positive control; also called recombinant hCD58-Fc protein; not shown: Fc
B4: recombinant human CD2 protein (rhCD2-His) (receptor, UniProt P06729 25-209, looked up)
chain: KEITNALETWGALGQDINLDIPSFQMSDDIDDIKWEKTSDKKKIAQFRKEKETFKEKDTYKLFKNGTLKIKHLKTDDQDIYKVSIYDTKGKNVLEKIFDLKIQERVSKPKISWTCINTTLTCEVMNGTDPELNLYQDGKHLKLSQRVITHKWTTSLSAKFKCTAGNKVSKESSVEPVSCPEKGLD
notes: also called recombinant CD2 protein; not shown: His tag

Experiments:
[1] = molecular target: B4; experiment: ELISA: coat rhCD2-His (Acro CD2-H5226), detection Anti-hFc-HRP
Procedure: (§1) Recombinant human CD2 (rhCD2) protein was coated on plates. Increasing amounts of the indicated chimeric proteins or Recombinant human CD58-Fc fusion protein (rhCD58-Fc) were added and detected using an anti-mFc-HRP (for mCD80-Fc-NKG2A) or anti-hFc-HRP (for rest of the proteins).
(§2) CD2 is a transmembrane protein in T cells that binds to its ligand CD58 on APC in humans and on CD48 in rodents. To understand whether the CD48 and CD58 parts of the hCD48-Fc-NKG2A, and hCD58-Fc-NKG2A chimeric protein can bind CD2, ELISA-based assays were performed. Briefly, recombinant human CD2 protein (rhCD2-His) was coated on plates and increasing amounts of the hCD48-Fc-NKG2A, hCD58-Fc-NKG2A, and mCD80-Fc-NKG2A chimeric proteins and recombinant hCD58-Fc protein was added to the plates for capture by the plate-bound recombinant CD2 protein. The […] chimeric protein served as a negative control and recombinant hCD58-Fc protein served as a positive control. The hCD48-Fc-NKG2A and hCD58-Fc-NKG2A, chimeric proteins and recombinant hCD58-Fc protein bound to the recombinant CD2 protein was detected using an anti-human Fc HRP. The mCD80-Fc-NKG2A chimeric protein bound to the recombinant CD2 protein was detected using an anti-mouse Fc HRP.

[2] = molecular target: T1, hCD2 expressed on CHO-K1/hCD2 cells (human, UniProt P06729 25-351); experiment: flow cytometry cell binding assay, CHOk1 cells, axis label GEO Mean - PE MFI
T1 construct: whole, on cells
T1 sequence (looked up): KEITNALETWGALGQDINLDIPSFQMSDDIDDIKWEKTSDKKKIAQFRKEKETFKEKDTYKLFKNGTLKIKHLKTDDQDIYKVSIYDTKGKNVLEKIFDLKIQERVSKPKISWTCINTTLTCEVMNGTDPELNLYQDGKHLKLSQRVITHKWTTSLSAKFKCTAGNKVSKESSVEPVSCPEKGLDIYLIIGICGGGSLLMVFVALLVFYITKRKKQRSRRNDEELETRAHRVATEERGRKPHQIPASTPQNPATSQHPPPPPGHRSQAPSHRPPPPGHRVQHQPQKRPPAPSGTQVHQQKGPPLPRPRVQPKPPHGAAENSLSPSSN

[3] = molecular target: T2, recombinant HLA-E-His protein (human, UniProt P13747 22-305, limits assumed); experiment: ELISA: the chimeric protein is the titrated coat (1:3), detection HLA-E-His (Novus NBP2-47435PEP), HRP Anti-6x-His-HRP
T2 construct: also called recombinant HLA-E (HLA-E-His); not shown: His tag
T2 sequence (P13747 22-305 limits assumed): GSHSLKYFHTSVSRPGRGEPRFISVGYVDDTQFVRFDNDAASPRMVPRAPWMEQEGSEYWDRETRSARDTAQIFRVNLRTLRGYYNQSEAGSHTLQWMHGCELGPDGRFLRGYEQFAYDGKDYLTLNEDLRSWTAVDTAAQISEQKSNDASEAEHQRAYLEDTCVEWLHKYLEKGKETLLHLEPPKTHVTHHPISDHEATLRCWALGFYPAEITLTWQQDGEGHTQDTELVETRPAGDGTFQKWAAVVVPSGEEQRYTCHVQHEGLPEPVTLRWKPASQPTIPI
Procedure: (§3) In a complementary experiment, increasing amounts of the hCD48-Fc-NKG2A, hCD58-Fc-NKG2A, and hCD80-Fc-NKG2A chimeric proteins or a negative control protein was coated on plates. Recombinant HLA-E-His protein was added to the plates for capture by the plate-bound chimeric proteins or the negative control protein. The captured HLA-E-His protein was detected using an anti-6×-His-HRP antibody.

[4] = molecular target: T3, anti-human IgG antibody (plate-bound); experiment: ELISA (single sided Fc): coat Anti-Human IgG (H+L) Jax# 109-005-088, detection HRP Goat anti-human FCgamma
T3 construct: also called anti-human Fc antibody
Procedure: Anti-human IgG was coated on plates and increasing amounts of the indicated chimeric proteins were added to the plates. hIgG was used as a positive control, and mCD80-Fc-NKG2A was used as a negative control. The binding was detected using an anti-human Fcgamma HRP.
To understand whether the Fc linkers from the native chimeric proteins can be accessed by anti-human antibodies, ELISA-based assays were performed. For these assays, an anti-human IgG antibody was coated on plates and increasing amounts of the hCD86-Fc-NKG2A and hTGFBR2-Fc-NKG2A, mCD80-Fc-NKG2a chimeric proteins, and a human IgG antibody were added to the plates for capture by the plate-bound anti-human antibody. The human IgG antibody was used as a positive control and to generate a standard curve. The mCD80-Fc-NKG2a chimeric protein was included as a negative control as containing a non-human Fc domain. The protein bound to the anti-human IgG antibody was detected using an anti-human Fcgamma HRP.

[5] = molecular target: T2, recombinant HLA-E-His protein; experiment: ELISA: the chimeric protein is the titrated coat (1:3), detection HLA-E-His (Novus NBP2-47435PEP), HRP Anti-6x-His-HRP; remark: listed apart in the source
Procedure: as §3, with “Similarly,” for “In a complementary experiment,”, “hTGFBR2-Fc-NKG2A” for “hCD48-Fc-NKG2A, hCD58-Fc-NKG2A,”, “hSLAMF6-Fc-NKG2A chimeric proteins” for “hCD80-Fc-NKG2A”

[6] = molecular target: B1; experiment: ELISA: coat rhCD2-His (Acro CD2-H5226), detection Anti-hFc-HRP
Procedure: as §1, §2

[7] = molecular target: T4, recombinant human SLAMF6-Fc (rhSLAMF6-Fc) protein (human, UniProt Q96DU3 22-226); experiment: dual ELISA; coat rhSLAMF6-Fc, hSLAMF6-Fc-NKG2a titrated, detection HLA-E-His, Anti-His-6x-HRP; the signal needs both bindings
T4 construct: not shown: Fc
T4 sequence (looked up): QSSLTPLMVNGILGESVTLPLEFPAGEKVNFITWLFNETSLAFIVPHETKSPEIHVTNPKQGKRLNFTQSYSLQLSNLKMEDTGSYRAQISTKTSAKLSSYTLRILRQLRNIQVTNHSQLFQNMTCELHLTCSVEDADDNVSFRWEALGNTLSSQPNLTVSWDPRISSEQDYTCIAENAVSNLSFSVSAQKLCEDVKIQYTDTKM
Procedure: Increasing amounts of the hSLAMF6-Fc-NKG2A chimeric protein was added and detected using HLA-E-His. A chimeric protein comprising ECD of a type II transmembrane protein other than NKG2A was used as a negative control.
To understand whether the hSLAMF6-Fc-NKG2A chimeric protein can binds simultaneously to both hSLAMF6 and HLA-E, the following ELISA experiment was carried out. Briefly, and recombinant hSLAMF6 (rhSLAMF6-Fc) protein was coated on plates. Increasing amounts of the hSLAMF6-Fc-NKG2A chimeric protein was added to the plates for capture by the recombinant human SLAMF6-Fc (rhSLAMF6-Fc) protein. Further, recombinant HLA-E (HLA-E-His) protein was added to the plate for capture by hSLAMF6-Fc-NKG2A chimeric protein. The binding of the HLA-E-His protein was detected using an anti-His 6× HRP antibody.

[8] = molecular target: T5, recombinant human 2B4 protein (rh2B4-His) (human, UniProt Q9BZW8-2 22-221, limits assumed); experiment: ELISA: coat rh2B4-His (Sino 10042-H08H), detection Anti-hFc-HRP
T5 construct: also called recombinant 2B4-His protein; not shown: His tag
T5 sequence (looked up): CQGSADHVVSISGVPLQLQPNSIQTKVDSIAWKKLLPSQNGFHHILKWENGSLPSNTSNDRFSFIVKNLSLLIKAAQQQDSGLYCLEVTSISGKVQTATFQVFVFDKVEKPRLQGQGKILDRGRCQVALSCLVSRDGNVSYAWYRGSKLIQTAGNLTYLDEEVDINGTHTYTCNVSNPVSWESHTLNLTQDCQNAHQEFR
Procedure: Increasing amounts of the indicated chimeric proteins or rhCD48-Fc were added and detected using an anti-mFc-HRP (for mCD80-Fc-NKG2A) or anti-hFc-HRP (for rest of the proteins).
CD48 is the ligand for 2B4. To understand whether the CD48 parts of the hCD48-Fc-NKG2A chimeric protein can bind 2B4, ELISA-based assays were performed. Briefly, recombinant human 2B4 protein (rh2B4-His) was coated on plates and increasing amounts of the hCD48-Fc-NKG2A and mCD80-Fc-NKG2A chimeric proteins and recombinant human CD48-Fc (rhCD48-Fc) protein was added to the plates for capture by the plate-bound recombinant 2B4 protein. The hCD48-Fc-NKG2A chimeric protein and recombinant human CD48-Fc (rhCD48-Fc) protein bound to the recombinant 2B4 protein was detected using an anti-human Fc HRP. The mCD80-Fc-NKG2A chimeric protein, which was used as a negative control, bound to the recombinant 2B4 protein was detected using an anti-mouse Fc HRP.

Binder: B1
EC50 (read off the curve) [1]: ~1 µg/mL

Binder: B4
binding result [6]: binds

B6: recombinant human CD48-Fc (rhCD48-Fc) protein (Fc fusion, UniProt P09326 27-220, looked up)
chain: QGHLVHMTVVSGSNVTLNISESLPENYKQLTWFYTFDQKIVEWDSRKSKYFESKFKGRVRLDPQSGALYISKVQKEDNSTYIMRVLKKTGNEQEWKIKLQVLDPVPKPVIKIEKIEDMDDNCYLKLSCVIPGESVNYTWYGDKRPFPKELQNSVLETTLMPHNYSRCYTCQVSNSVSSKNGTVCLSPPCTLARS
notes: Comparator; not shown: Fc
binding result [8]: binds

Further lines, results first:

EC50 (read off the curve) [2]: ~1 µg/mL
EC50 (read off the curve) [3]: ~0.7 µg/mL
B2: human CD58-Fc-NKG2A chimeric protein (Fc fusion)
chain: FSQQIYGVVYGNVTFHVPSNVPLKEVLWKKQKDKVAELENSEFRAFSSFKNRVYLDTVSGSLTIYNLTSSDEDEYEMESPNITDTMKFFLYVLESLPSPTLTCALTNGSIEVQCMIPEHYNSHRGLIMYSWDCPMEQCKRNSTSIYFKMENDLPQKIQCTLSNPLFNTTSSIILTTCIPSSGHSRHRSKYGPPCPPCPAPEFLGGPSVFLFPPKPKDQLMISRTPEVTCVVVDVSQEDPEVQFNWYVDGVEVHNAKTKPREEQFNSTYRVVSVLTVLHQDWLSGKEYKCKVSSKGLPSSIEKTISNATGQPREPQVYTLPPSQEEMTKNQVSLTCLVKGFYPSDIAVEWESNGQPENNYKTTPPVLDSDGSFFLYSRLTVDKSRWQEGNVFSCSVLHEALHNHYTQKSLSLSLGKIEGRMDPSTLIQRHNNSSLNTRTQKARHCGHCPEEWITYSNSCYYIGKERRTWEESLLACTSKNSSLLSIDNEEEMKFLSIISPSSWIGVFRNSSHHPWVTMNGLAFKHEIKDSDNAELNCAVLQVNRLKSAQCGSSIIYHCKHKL
notes: also called hCD58-Fc-NKG2A

EC50 (read off the curve) [4]: ~10 µg/mL
EC50 (read off the curve) [5]: ~5 µg/mL
B3: human TGFBR2-Fc-NKG2A chimeric protein (Fc fusion)
chain: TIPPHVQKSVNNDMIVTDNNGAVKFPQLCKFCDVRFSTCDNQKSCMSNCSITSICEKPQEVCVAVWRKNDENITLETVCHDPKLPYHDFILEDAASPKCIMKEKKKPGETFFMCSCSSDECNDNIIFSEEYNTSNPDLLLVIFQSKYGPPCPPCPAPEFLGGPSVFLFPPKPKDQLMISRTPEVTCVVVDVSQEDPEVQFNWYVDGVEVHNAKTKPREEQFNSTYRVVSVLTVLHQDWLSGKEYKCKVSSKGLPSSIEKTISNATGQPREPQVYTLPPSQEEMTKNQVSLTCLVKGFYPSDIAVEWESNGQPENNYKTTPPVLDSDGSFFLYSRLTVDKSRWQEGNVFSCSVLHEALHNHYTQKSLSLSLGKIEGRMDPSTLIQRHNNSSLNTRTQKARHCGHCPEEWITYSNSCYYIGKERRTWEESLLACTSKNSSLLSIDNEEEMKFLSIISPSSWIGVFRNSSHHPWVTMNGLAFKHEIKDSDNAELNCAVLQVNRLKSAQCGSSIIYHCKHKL
notes: also called hTGFBR2-Fc-NKG2A

EC50 (read off the curve) [7]: ~30 µg/mL
EC50 (read off the curve) [5]: ~6 µg/mL
B5: human SLAMF6-Fc-NKG2A chimeric protein (Fc fusion)
chain: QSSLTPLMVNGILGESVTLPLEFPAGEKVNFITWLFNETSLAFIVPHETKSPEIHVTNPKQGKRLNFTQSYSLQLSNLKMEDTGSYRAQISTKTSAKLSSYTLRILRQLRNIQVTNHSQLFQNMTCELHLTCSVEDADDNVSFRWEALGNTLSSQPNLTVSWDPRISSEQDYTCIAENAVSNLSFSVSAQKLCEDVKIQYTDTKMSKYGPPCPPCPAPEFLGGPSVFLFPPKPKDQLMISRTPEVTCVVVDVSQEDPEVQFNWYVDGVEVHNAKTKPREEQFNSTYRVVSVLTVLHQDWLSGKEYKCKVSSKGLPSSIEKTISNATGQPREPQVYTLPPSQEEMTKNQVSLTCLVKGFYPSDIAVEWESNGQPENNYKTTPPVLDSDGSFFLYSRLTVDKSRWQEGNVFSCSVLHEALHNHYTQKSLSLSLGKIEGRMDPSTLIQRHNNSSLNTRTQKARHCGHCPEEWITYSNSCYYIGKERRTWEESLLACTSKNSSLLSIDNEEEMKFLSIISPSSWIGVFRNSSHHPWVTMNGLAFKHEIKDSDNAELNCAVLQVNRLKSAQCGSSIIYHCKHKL
notes: also called hSLAMF6-Fc-NKG2A

From patent publication US20200399344A1 (SHATTUCK LABS, published 2020)
